How the values were obtained:
HeLa Kyoto [1] = test: solubility in G1/S (NP-40 vs SDS abundance) (log2 ratio); higher = more soluble; details: cell cycle stage: G1/S
HeLa Kyoto [2] = test: melting temperature (median over replicates), in situ; higher = more thermally stable
HeLa Kyoto [3] = test: solubility change mitosis vs G1/S (difference of NP-40 vs SDS log2 ratios) (log2 ratio difference); higher = more soluble in mitosis
HeLa Kyoto [4] = test: thermal stability score vs G1/S (z-score of summed log2 fold changes over temperatures); higher = more thermally stable than in G1/S
[5] = cell cycle stage: early G1 (4.5 h after nocodazole release)
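Wherever melting temperature (median over replicates), in situ is given: HeLa Kyoto cells synchronized by double thymidine or nocodazole block, proteins quantified by TMT10plex mass spectrometry, three independent biological replicates.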
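Wherever solubility change mitosis vs G1/S (difference of NP-40 vs SDS log2 ratios) is given: synchronized HeLa Kyoto cells (double thymidine block for G1/S, nocodazole release for mitosis), protein amounts in NP-40 versus SDS lysates quantified by mass spectrometry, three biological replicates.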
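Wherever solubility in G1/S (NP-40 vs SDS abundance) is given: HeLa Kyoto cells arrested at G1/S by double thymidine block, proteins quantified by TMT10plex mass spectrometry in mild NP-40 versus SDS extracts, three biological replicates.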
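Wherever thermal stability score vs G1/S (z-score of summed log2 fold changes over temperatures) is given: synchronized HeLa Kyoto cells, proteins quantified by TMT10plex mass spectrometry, three biological replicates, mitosis taken 0.5 h after nocodazole release, G1/S directly after double thymidine block.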

| Sequence | solubility in G1/S (log2) (HeLa Kyoto [1]) | melting temperature (HeLa Kyoto [2]; cell cycle stage: G1/S) [°C] | melting temperature (HeLa Kyoto [2]; cell cycle stage: mitosis) [°C] | solubility change mitosis (log2) (HeLa Kyoto [3]) | thermal stability score (HeLa Kyoto [4]; [5]) | thermal stability score (HeLa Kyoto [4]; cell cycle stage: mitosis) |
| --- | --- | --- | --- | --- | --- | --- |
| MSQSGAVSCCPGATNGSLGRSDGVAKMSPKDLFEQRKKYSNSNVIMHETSQYHVQHLATFIMDKSEAITSVDDAIRKLVQLSSKEKIWTQEMLLQVNDQSLRLLDIESQEELEDFPLPTVQRSQTVLNQLRYPSVLLLVCQDSEQSKPDVHFFHCDEVEAELVHEDIESALADCRLGKKMRPQTLKGHQEKIRQRQSILPPPQGPAPIPFQHRGGDSPEAKNRVGPQVPLSEPGFRRRESQEEPRAVLAQKIEKETQILNCALDDIEWFVARLQKAAEAFKQLNQRKKGKKKGKKAPAEGVLTLRARPPSEGEFIDCFQKIKLAINLLAKLQKHIQNPSAAELVHFLFGPLDLIVNTCSGPDIARSVSCPLLSRDAVDFLRGHLVPKEMSLWESLGESWMRPRSEWPREPQVPLYVPKFHSGWEPPVDVLQEAPWEVEGLASAPIEEVSPVSRQSIRNSQKHSPTSEPTPPGDALPPVSSPHTHRGYQPTPAMAKYVKILYDFTARNANELSVLKDEVLEVLEDGRQWWKLRSRSGQAGYVPCNILGEARPEDAGAPFEQAGQKYWGPASPTHKLPPSFPGNKDELMQHMDEVNDELIRKISNIRAQPQRHFRVERSQPVSQPLTYESGPDEVRAWLEAKAFSPRIVENLGILTGPQLFSLNKEELKKVCGEEGVRVYSQLTMQKAFLEKQQSGSELEELMNKFHSMNQRRGEDS [EPS8L2] | 0.468 | 50.4 | 50.1 | -0.0548 | 0.00646 | 0.475 |
| MFWKFDLNTTSHVDKLLDKEHVTLQELMDEDDILQECKAQNQKLLDFLCRQQCMEELVSLITQDPPLDMEEKVRFKYPNTACELLTCDVPQISDRLGGDESLLSLLYDFLDHEPPLNPLLASFFSKTIGNLIARKTEQVITFLKKKDKFISLVLKHIGTSALMDLLLRLVSCVEPAGLRQDVLHWLNEEKVIQRLVELIHPSQDEDRQSNASQTLCDIVRLGRDQGSQLQEALEPDPLLTALESQDCVEQLLKNMFDGDRTESCLVSGTQVLLTLLETRRVGTEGLVDSFSQGLERSYAVSSSVLHGIEPRLKDFHQLLLNPPKKKAILTTIGVLEEPLGNARLHGARLMAALLHTNTPSINQELCRLNTMDLLLDLFFKYTWNNFLHFQVELCIAAILSHAAREERTEASGSESRVEPPHENGNRSLETPQPAASLPDNTMVTHLFQKCCLVQRILEAWEANDHTQAAGGMRRGNMGHLTRIANAVVQNLERGPVQTHISEVIRGLPADCRGRWESFVEETLTETNRRNTVDLVSTHHLHSSSEDEDIEGAFPNELSLQQAFSDYQIQQMTANFVDQFGFNDEEFADQDDNINAPFDRIAEINFNIDADEDSPSAALFEACCSDRIQPFDDDEDEDIWEDSDTRCAARVMARPRFGAPHASESCSKNGPERGGQDGKASLEAHRDAPGAGAPPAPGKKEAPPVEGDSEGAMWTAVFDEPANSTPTAPGVVRDVGSSVWAAGTSAPEEKGWAKFTDFQPFCCSESGPRCSSPVDTECSHAEGSRSQGPEKASQASYFAVSPASPCAWNVCVTRKAPLLASDSSSSGGSHSEDGDQKAASAMDAVSRGPGREAPPLPTVARTEEAVGRVGCADSRLLSPACPAPKEVTAAPAVAVPPEATVAITTALSKAGPAIPTPAVSSALAVAVPLGPIMAVTAAPAMVATLGTVTKDGKTDAPPEGAALNGPV [PPP6R2] | 0.0656 | 54.5 | 52.8 | -0.119 | -0.206 | -1.5 |
| MAELDIGQHCQVEHCRQRDFLPFVCDDCSGIFCLEHRSRESHGCPEVTVINERLKTDQHTSYPCSFKDCAERELVAVICPYCEKNFCLRHRHQSDHECEKLEIPKPRMAATQKLVKDIIDSKTGETASKRWKGAKNSETAAKVALMKLKMHADGDKSLPQTERIYFQVFLPKGSKEKSKPMFFCHRWSIGKAIDFAASLARLKNDNNKFTAKKLRLCHITSGEALPLDHTLETWIAKEDCPLYNGGNIILEYLNDEEQFCKNVESYLE [ZFAND1] | 0.496 | 50.6 | 49.9 | -0.173 | -0.0516 | 1.54 |
| MATAVSRPCAGRSRDILWRVLGWRIVASIVWSVLFLPICTTVFIIFSRIDLFHPIQWLSDSFSDLYSSYVIFYFLLLSVVIIIISIFNVEFYAVVPSIPCSRLALIGKIIHPQQLMHSFIHAAMGMVMAWCAAVITQGQYSFLVVPCTGTNSFGSPAAQTCLNEYHLFFLLTGAFMGYSYSLLYFVNNMNYLPFPIIQQYKFLRFRRSLLLLVKHSCVESLFLVRNFCILYYFLGYIPKAWISTAMNLHIDEQVHRPLDTVSGLLNLSLLYHVWLCGVFLLTTWYVSWILFKIYATEAHVFPVQPPFAEGSDECLPKVLNSNPPPIIKYLALQDLMLLSQYSPSRRQEVFSLSQPGGHPHNWTAISRECLNLLNGMTQKLILYQEAAATNGRVSSSYPVEPKKLNSPEETAFQTPKSSQMPRPSVPPLVKTSLFSSKLSTPDVVSPFGTPFGSSVMNRMAGIFDVNTCYGSPQSPQLIRRGPRLWTSASDQQMTEFSNPSPSTSISAEGKTMRQPSVIYSWIQNKREQIKNFLSKRVLIMYFFSKHPEASIQAVFSDAQMHIWALEGLSHLVAASFTEDRFGVVQTTLPAILNTLLTLQEAVDKYFKLPHASSKPPRISGSLVDTSYKTLRFAFRASLKTAIYRITTTFGEHLNAVQASAEHQKRLQQFLEFKE [NDC1] | -0.187 | 52.7 | 51.3 | 0.182 | -4.66 | -7.41 |

Reference: the supplement of paper PMC5998384
